Results on 3 substances are retold here after paper PMC4975651.

Common to all, as to assay: ITC
Assay [1] has as its target H3K4me0 peptide (ITC, Figures 5D and 5E) (UniProt P68431).
The target in the next assay is H3K4me0K14ac peptide.
In a further assay the target is H3K4me0 (1-25aa) peptide (UniProt P68431).

Regarding ZMYND8-PB (ITC) (domain or fragment), the Kd (commonly a measure of binding affinity in units of concentration) in assay [1] worked out at 15 µM. As for “ZMYND8-PBP (93-426aa) (domain or fragment)”, the figures for the dissociation constant Kd (in assay [1]; with H3K4me0K14ac peptide) were 7.2 µM and 1 µM, respectively. ZMYND8-PBP F109D (domain or fragment) showed a fold increase of binding activity against ZMYND8-PBP in the assay with H3K4me0 (1-25aa) peptide of 11 fold.
